# Reference: doi:10.1101/2025.08.22.671756, “Structural basis of Drosophila insulin receptor activation by DILP2 hormone” (bioRxiv, 2025)
# B1: Drosophila melanogaster insulin receptor ectodomain (dmIR-ECD) (domain or fragment, UniProt P09208 291-1309, looked up)
# chain: LPAHQQHLLHNDIADGLDKTALSVSGTQSRWTRSESNPTMRLSQNVKPCKSMDIRNMVSHFNQLENCTVIEGFLLIDLINDASPLNRSFPKLTEVTDYIIIYRVTGLHSLSKIFPNLSVIRGNKLFDGYALVVYSNFDLMDLGLHKLRSITRGGVRIEKNHKLCYDRTIDWLEILAENETQLVVLTENGKEKECRLSKCPGEIRIEEGHDTTAIEGELNASCQLHNNRRLCWNSKLCQTKCPEKCRNNCIDEHTCCSQDCLGGCVIDKNGNESCISCRNVSFNNICMDSCPKGYYQFDSRCVTANECITLTKFETNSVYSGIPYNGQCITHCPTGYQKSENKRMCEPCPGGKCDKECSSGLIDSLERAREFHGCTIITGTEPLTISIKRESGAHVMDELKYGLAAVHKIQSSLMVHLTYGLKSLKFFQSLTEISGDPPMDADKYALYVLDNRDLDELWGPNQTVFIRKGGVFFHFNPKLCVSTINQLLPMLASKPKFFEKSDVGADSNGNRGSCGTAVLNVTLQSVGANSAMLNVTTKVEIGEPQKPSNATIVFKDPRAFIGFVFYHMIDPYGNSTKSSDDPCDDRWKVSSPEKSGVMVLSNLIPYTNYSYYVRTMAISSELTNAESDVKNFRTNPGRPSKVTEVVATAISDSKINVTWSYLDKPYGVLTRYFIKAKLINRPTRNNNRDYCTEPLVKAMENDLPATTPTKKISDPLAGDCKCVEGSKKTSSQEYDDRKVQAGMEFENALQNFIFVPNIRKSKNGSSDKSDGAEGAALDSNAIPNGGATNPSRRRRDVALEPELDDVEGSVLLRHVRSITDDTDAFFEKDDENTYKDEEDLSSNKQFYEVFAKELPPNQTHFVFEKLRHFTRYAIFVVACREEIPSEKLRDTSFKKSLCSDYDTVFQTTKRKKFADIVMDLKVDLEHANNTESPVRVRWTPPVDPNGEIVTYEVAYKLQKPDQVEEKKCIPAADFNQTAGYLIKLNEGLYSFRVRANSIAGYGDFTEVEHIKVEPPPSYA
# notes: Insulin receptor (dmIR), Drosophila melanogaster, ectodomain; Expressed from codon-optimised DNA for residues 264-1309 with an added start codon; the results name the construct 291Leu-1309Ala; Described as an (αβ)2 homodimer; N-glycans are visible in the maps; also called dmIR ectodomain; 291Leu-1309Ala dmIR-ECD construct; source: Sf9 (ExpiSf9) cells, baculovirus, conditioned media, purified …
# Biological target: the molecule itself
# Assay: cryo-EM structure; dmIR-ECD 0.2 mg/ml in SEC buffer (25 mM HEPES pH 8.0, 200 mM NaCl) incubated with 40-fold molar excess of DILP2 at room temperature for 30 min; two conformers from subsets of the particles (3.75 Å and 6.25 Å maps)
protein,measurement,value
B1,binding result,binds
